The RNAGym collection of RNA variant scans (doi:10.1021/acssynbio.7b00057)

B1: Pistol ribozyme (parent)
chain: GGGUCGUUGUUCCAUAAUCGCGUGGAUAUGGCACGCAAGUUUCUACCGGGCACCGUAAAUGUCCGACUGGAGCCGUUCGGGCGGCUAUAAACAGACCUCAGGCCCGAAGCGUGGCGGCACCUGCCGCCGGUGGUAAAAAAGAUCGGAAGAGCACACGUCU

Variants of: B1
Assay: aptazyme ON/OFF ratio, guanine; higher = stronger switching; co-transcriptional cleavage with and without guanine

Question: With GGGUCGAGAGCGAAUAAUCGCGUGGAUAUGGCACGCAAGUUUCUACCGGGCACCGUAAAUGUCCGACUGGAGCCGUUCGGGCGGCUAUAAACAGACCUCAGGCCCGAAGCGUGGCGGCACCUGCCGCCGGUGGUAAAAAAGAUCGGAAGAGCACACGUCU [U7A U8G G9A U10G U11C C12G C13A] as the variant, how does the “aptazyme ON/OFF ratio” value read?
Answer: 1.4

Question: For GGGUCGAGAGCGGAUAAUCGCGUGGAUAUGGCACGCAAGUUUCUACCGGGCACCGUAAAUGUCCGACUGGAGCCGUUCGGGCGGCUAUAAACAGACCUCAGGCCCGAAGCGUGGCGGCACCUGCCGCCGGUGGUAAAAAAGAUCGGAAGAGCACACGUCU [U7A U8G G9A U10G U11C C12G C13G], which “aptazyme ON/OFF ratio” value is on record?
Answer: 1.23

Question: For GGGUCGAGAGCGUAUAAUCGCGUGGAUAUGGCACGCAAGUUUCUACCGGGCACCGUAAAUGUCCGACUGGAGCCGUUCGGGCGGCUAUAAACAGACCUCAGGCCCGAAGCGUGGCGGCACCUGCCGCCGGUGGUAAAAAAGAUCGGAAGAGCACACGUCU [U7A U8G G9A U10G U11C C12G C13U], which “aptazyme ON/OFF ratio” value is on record?
Answer: 1.22

Question: With GGGUCGAGAGGAAAUAAUCGCGUGGAUAUGGCACGCAAGUUUCUACCGGGCACCGUAAAUGUCCGACUGGAGCCGUUCGGGCGGCUAUAAACAGACCUCAGGCCCGAAGCGUGGCGGCACCUGCCGCCGGUGGUAAAAAAGAUCGGAAGAGCACACGUCU [U7A U8G G9A U10G U11G C12A C13A] as the variant, how does the “aptazyme ON/OFF ratio” value read?
Answer: 1.65

Question: For GGGUCGAGAGGAUAUAAUCGCGUGGAUAUGGCACGCAAGUUUCUACCGGGCACCGUAAAUGUCCGACUGGAGCCGUUCGGGCGGCUAUAAACAGACCUCAGGCCCGAAGCGUGGCGGCACCUGCCGCCGGUGGUAAAAAAGAUCGGAAGAGCACACGUCU [U7A U8G G9A U10G U11G C12A C13U], which “aptazyme ON/OFF ratio” value is on record?
Answer: 1.5

Question: Which “aptazyme ON/OFF ratio” value does the source give for GGGUCGAGAGGAGAUAAUCGCGUGGAUAUGGCACGCAAGUUUCUACCGGGCACCGUAAAUGUCCGACUGGAGCCGUUCGGGCGGCUAUAAACAGACCUCAGGCCCGAAGCGUGGCGGCACCUGCCGCCGGUGGUAAAAAAGAUCGGAAGAGCACACGUCU [U7A U8G G9A U10G U11G C12A C13G] here?
Answer: 1.34

Question: With GGGUCGAGAGCAUAUAAUCGCGUGGAUAUGGCACGCAAGUUUCUACCGGGCACCGUAAAUGUCCGACUGGAGCCGUUCGGGCGGCUAUAAACAGACCUCAGGCCCGAAGCGUGGCGGCACCUGCCGCCGGUGGUAAAAAAGAUCGGAAGAGCACACGUCU [U7A U8G G9A U10G U11C C12A C13U] as the variant, how does the “aptazyme ON/OFF ratio” value read?
Answer: 1.38

Question: Which “aptazyme ON/OFF ratio” value does the source give for GGGUCGAGAGCAAAUAAUCGCGUGGAUAUGGCACGCAAGUUUCUACCGGGCACCGUAAAUGUCCGACUGGAGCCGUUCGGGCGGCUAUAAACAGACCUCAGGCCCGAAGCGUGGCGGCACCUGCCGCCGGUGGUAAAAAAGAUCGGAAGAGCACACGUCU [U7A U8G G9A U10G U11C C12A C13A] here?
Answer: 1.2

Question: With GGGUCGAGAGCAGAUAAUCGCGUGGAUAUGGCACGCAAGUUUCUACCGGGCACCGUAAAUGUCCGACUGGAGCCGUUCGGGCGGCUAUAAACAGACCUCAGGCCCGAAGCGUGGCGGCACCUGCCGCCGGUGGUAAAAAAGAUCGGAAGAGCACACGUCU [U7A U8G G9A U10G U11C C12A C13G] as the variant, how does the “aptazyme ON/OFF ratio” value read?
Answer: 1.36

Question: Which “aptazyme ON/OFF ratio” value does the source give for GGGUCGAGAGCACAUAAUCGCGUGGAUAUGGCACGCAAGUUUCUACCGGGCACCGUAAAUGUCCGACUGGAGCCGUUCGGGCGGCUAUAAACAGACCUCAGGCCCGAAGCGUGGCGGCACCUGCCGCCGGUGGUAAAAAAGAUCGGAAGAGCACACGUCU [U7A U8G G9A U10G U11C C12A] here?
Answer: 1.45

Question: With GGGUCGAGAGCGCAUAAUCGCGUGGAUAUGGCACGCAAGUUUCUACCGGGCACCGUAAAUGUCCGACUGGAGCCGUUCGGGCGGCUAUAAACAGACCUCAGGCCCGAAGCGUGGCGGCACCUGCCGCCGGUGGUAAAAAAGAUCGGAAGAGCACACGUCU [U7A U8G G9A U10G U11C C12G] as the variant, how does the “aptazyme ON/OFF ratio” value read?
Answer: 1.38

Question: Which “aptazyme ON/OFF ratio” value does the source give for GGGUCGAGAGCUCAUAAUCGCGUGGAUAUGGCACGCAAGUUUCUACCGGGCACCGUAAAUGUCCGACUGGAGCCGUUCGGGCGGCUAUAAACAGACCUCAGGCCCGAAGCGUGGCGGCACCUGCCGCCGGUGGUAAAAAAGAUCGGAAGAGCACACGUCU [U7A U8G G9A U10G U11C C12U] here?
Answer: 1.16

Question: With GGGUCGAGAGCCGAUAAUCGCGUGGAUAUGGCACGCAAGUUUCUACCGGGCACCGUAAAUGUCCGACUGGAGCCGUUCGGGCGGCUAUAAACAGACCUCAGGCCCGAAGCGUGGCGGCACCUGCCGCCGGUGGUAAAAAAGAUCGGAAGAGCACACGUCU [U7A U8G G9A U10G U11C C13G] as the variant, how does the “aptazyme ON/OFF ratio” value read?
Answer: 1.1

Question: Which “aptazyme ON/OFF ratio” value does the source give for GGGUCGAGAGCCAAUAAUCGCGUGGAUAUGGCACGCAAGUUUCUACCGGGCACCGUAAAUGUCCGACUGGAGCCGUUCGGGCGGCUAUAAACAGACCUCAGGCCCGAAGCGUGGCGGCACCUGCCGCCGGUGGUAAAAAAGAUCGGAAGAGCACACGUCU [U7A U8G G9A U10G U11C C13A] here?
Answer: 1.12

Question: For GGGUCGAGAGCCUAUAAUCGCGUGGAUAUGGCACGCAAGUUUCUACCGGGCACCGUAAAUGUCCGACUGGAGCCGUUCGGGCGGCUAUAAACAGACCUCAGGCCCGAAGCGUGGCGGCACCUGCCGCCGGUGGUAAAAAAGAUCGGAAGAGCACACGUCU [U7A U8G G9A U10G U11C C13U], which “aptazyme ON/OFF ratio” value is on record?
Answer: 1.06

Question: For GGGUCGAGAGACUAUAAUCGCGUGGAUAUGGCACGCAAGUUUCUACCGGGCACCGUAAAUGUCCGACUGGAGCCGUUCGGGCGGCUAUAAACAGACCUCAGGCCCGAAGCGUGGCGGCACCUGCCGCCGGUGGUAAAAAAGAUCGGAAGAGCACACGUCU [U7A U8G G9A U10G U11A C13U], which “aptazyme ON/OFF ratio” value is on record?
Answer: 1.03

Question: For GGGUCGAGAGACAAUAAUCGCGUGGAUAUGGCACGCAAGUUUCUACCGGGCACCGUAAAUGUCCGACUGGAGCCGUUCGGGCGGCUAUAAACAGACCUCAGGCCCGAAGCGUGGCGGCACCUGCCGCCGGUGGUAAAAAAGAUCGGAAGAGCACACGUCU [U7A U8G G9A U10G U11A C13A], which “aptazyme ON/OFF ratio” value is on record?
Answer: 1.11

Question: For GGGUCGAGAGACGAUAAUCGCGUGGAUAUGGCACGCAAGUUUCUACCGGGCACCGUAAAUGUCCGACUGGAGCCGUUCGGGCGGCUAUAAACAGACCUCAGGCCCGAAGCGUGGCGGCACCUGCCGCCGGUGGUAAAAAAGAUCGGAAGAGCACACGUCU [U7A U8G G9A U10G U11A C13G], which “aptazyme ON/OFF ratio” value is on record?
Answer: 1.16
